# From patent US20100119511A1 (Biogen, published 2010)
# B1: 71F10 Fab-hLIGHT fusion with the delta 4 linker (BIIB71F10-130) (other)
# heavy: EVQLLESGGGLVQPGGSLRLSCAASGFTFSSYGMVWVRQAPGKGLEWVSSISSSGGLTWYADSVKGRFTISRDNSKNTLYLQMNSLRAEDTAVYYCASPPGIAVARDYWGQGTLVTVSSASTKGPSVFPLAPSSKSTSGGTAALGCLVKDYFPEPVTVSWNSGALTSGVHTFPAVLQSSGLYSLSSVVTVPSSSLGTQTYICNVNHKPSNTKVDKKVEPKSCDKLHWRLGEMVTRLPDGPAGSWQERRSHEVNPAAHLTGANSSLTGSGGPLLWETQLGLAFLRGLSYHDGALVVTKAGYYYIYSKVQLGGVGCPLGLASTITHGLYKRTPRYPEELELLVSQQSPCGRATSSSRVWWDSSFLGGVVHLEAGEEVVVRVLDERLVRLRDGTRSYFGAFMV
# light: DIQMTQSPSSLSASVGDRVTITCRASQGISNYLAWYQQKPGKVPKLLIYAASTLQSGVPSRFSGSGSGTDFTLTISSLQPEDVATYYCQKYNSALLTFGGGTKVEIKRTVAAPSVFIFPPSDEQLKSGTASVVCLLNNFYPREAKVQWKVDNALQSGNSQESVTEQDSKDSTYSLSSTLTLSKADYEKHKVYACEVTHQGLSSPVTKSFNRGEC
# modifications: Assembles as a trimer of heavy/light pairs; one pair is given.
# notes: Fab heavy chain fused to human LIGHT extracellular portion; assembles as a trimer (66 kDa x3); also called pBIIB71F10-130; 71F10 Fab-Δ4huLIGHT
# Tests used:
# [1] = target: T1, HVEM-Ig (species not stated); experiment: ELISA (Table 2; species of HVEM not given)
# T1 construct: also called HVEM-Fc
# T1 sequence (Q92956 39-202): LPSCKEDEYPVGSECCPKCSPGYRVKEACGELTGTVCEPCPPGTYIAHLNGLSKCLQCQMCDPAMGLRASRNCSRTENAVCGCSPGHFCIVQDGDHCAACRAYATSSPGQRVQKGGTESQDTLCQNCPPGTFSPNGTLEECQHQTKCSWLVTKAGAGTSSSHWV
# Procedure: (§1) Human and murine ErbB2-Fc were obtained from R&D Systems. Wells of 96-well plates were coated with 2 ug/ml or 0.2 ug/ml of human or murine HER2-Fc by incubation overnight at 4-8° C. with either of these six proteins (80 ul/well of a 0.2 or 2 ug/ml solution in PBS). Wells were emptied, filled completely with a solution of PBS with 1% BSA (blocking buffer) and incubated at room temperature for 1 hour. Wells were emptied, washed twice PBS containing 0.05% Tween 20 (PBST) and filled with the samples (80 ul/well of 3× dilution series of the standard and supernatants in blocking buffer) prepared in another 96-well plate. After a 2-hour incubation at room temperature, the wells were emptied, washed three times with PBST and filled with a solution of HRP-conjugated goat pAbs anti-human kappa chain (80 ul/well of a 2000-fold dilution in blocking buffer). After 1-hour incubation, the wells were emptied and filled with a solution of HRP substrate prepared freshly. The color was left to develop for 3 minutes and was stopped by addition of an equal volume of 1N H₂SO₄. Absorbance was measured at 450 nm using a Plate Reader (SpectraMax, Molecular Devices). The data was processed and graphs were created using SoftMax Pro software.
# Human and murine HVEM-Ig were expressed and purified in house.
# [2] = target: LTβR on human tumor cells (SKBR-3, HT29) (human, UniProt P36941 31-435); experiment: cell-based or functional assay
# Sequence of LTβR on human tumor cells (SKBR-3, HT29) (P36941 31-435): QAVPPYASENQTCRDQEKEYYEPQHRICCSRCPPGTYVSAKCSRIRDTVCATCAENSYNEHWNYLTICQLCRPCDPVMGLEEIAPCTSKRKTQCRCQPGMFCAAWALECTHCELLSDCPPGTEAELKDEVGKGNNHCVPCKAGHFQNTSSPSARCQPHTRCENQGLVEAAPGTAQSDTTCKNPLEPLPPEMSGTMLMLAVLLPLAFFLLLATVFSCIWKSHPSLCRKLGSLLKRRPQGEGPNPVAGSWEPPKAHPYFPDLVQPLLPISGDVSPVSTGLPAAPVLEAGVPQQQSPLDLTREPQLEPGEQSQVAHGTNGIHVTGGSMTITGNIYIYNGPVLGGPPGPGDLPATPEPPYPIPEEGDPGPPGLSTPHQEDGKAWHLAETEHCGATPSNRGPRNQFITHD
# murine HER2-Fc = target: T2, murine HER2-Fc (mouse; human, UniProt P70424 23-653); experiment: ELISA on coated muHER2-Fc, detection anti-human kappa-HRP; value is C (midpoint) of the printed 4-P fit; x axis Fab equivalent concentration
# T2 construct: extracellular domain; Homodimeric fusion protein from R&D Systems; also called murine ErbB2-Fc; not shown: Fc fragment of human IgG1
# T2 sequence (P70424 23-653): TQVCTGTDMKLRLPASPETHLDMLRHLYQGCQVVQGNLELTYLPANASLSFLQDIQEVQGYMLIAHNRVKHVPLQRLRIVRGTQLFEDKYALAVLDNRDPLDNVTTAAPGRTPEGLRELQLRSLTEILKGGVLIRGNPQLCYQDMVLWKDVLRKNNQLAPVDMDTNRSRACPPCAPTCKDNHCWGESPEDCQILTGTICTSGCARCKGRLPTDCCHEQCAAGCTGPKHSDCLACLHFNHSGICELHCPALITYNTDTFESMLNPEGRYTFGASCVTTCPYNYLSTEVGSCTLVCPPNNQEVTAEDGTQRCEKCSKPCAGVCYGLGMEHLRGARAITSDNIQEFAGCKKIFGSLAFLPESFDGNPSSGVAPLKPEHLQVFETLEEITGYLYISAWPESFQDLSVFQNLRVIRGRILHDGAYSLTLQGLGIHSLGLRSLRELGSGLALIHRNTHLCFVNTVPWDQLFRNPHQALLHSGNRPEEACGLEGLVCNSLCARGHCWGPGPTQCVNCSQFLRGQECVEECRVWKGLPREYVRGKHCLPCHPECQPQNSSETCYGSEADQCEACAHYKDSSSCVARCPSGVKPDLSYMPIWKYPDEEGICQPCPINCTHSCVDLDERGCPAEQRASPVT
# [3] = target: T3, HER2-Fc (species not stated); experiment: ELISA (Table 2; species of Her2 not given)
# T3 construct: probably human
# Procedure: as §1
# [4] = target: T4, LTβR-Ig (species not stated); experiment: FACS (Table 2; format not given, Example 16 detects LTbR-Ig on cell-bound fusion)
# T4 construct: also called LTβR-human Fc fusion
# T4 sequence (P36941 31-227): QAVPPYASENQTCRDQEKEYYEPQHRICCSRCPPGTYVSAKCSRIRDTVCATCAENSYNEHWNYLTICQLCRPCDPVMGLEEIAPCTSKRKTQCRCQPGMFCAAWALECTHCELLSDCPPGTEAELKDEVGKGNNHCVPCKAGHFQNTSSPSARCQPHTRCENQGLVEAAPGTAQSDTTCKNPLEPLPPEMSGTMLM
# [5] = target: T4, LTβR-Ig (species not stated); experiment: ELISA (Table 2; species of LTbR not given)
# Procedure: as §1
# Human and murine LTBR-Ig were expressed and purified in house.
# human HER2-Fc = target: T5, human HER2-Fc (human, UniProt P04626 23-652); experiment: ELISA on coated huHER2-Fc, detection anti-human kappa-HRP; value is C (midpoint) of the printed 4-P fit; x axis Fab equivalent concentration
# T5 construct: extracellular domain; Homodimeric fusion protein from R&D Systems; also called human ErbB2-Fc; rhErbB2-Fc; not shown: Fc fragment of human IgG1
# [6] = target: T6, human HER2/ErbB2, full length, on cells (human, UniProt P04626 23-1255); experiment: FACS (Table 2; cells not given, Examples 14-16 use SKBR3 or CHO/hHER2)
# T6 construct: whole, on cells; also called hHER2/ErbB2; wild type HER2/ErbB
# [7] = target: T4, LTβR-Ig (species not stated); experiment: biolayer interferometry (Octet), receptor Fc fusion on anti-human Fc sensor, culture supernatant
# Procedure: (§2) Anti-human Fc-specific biosensors (Fortebio SKU 18-0001) were hydrated in OB (1×PBS supplemented with 1 mg/ml BSA, 0.05% NaN₃, and 0.02% TWEEN 20) for at least five minutes prior to assays. For each assay, the respective receptor Fc fusion was diluted to 10 μg/ml in OB and allowed to bind to the biosensors for five minutes. The sensors were then incubated in the indicated culture supernatant for an additional five minutes, and subsequently transferred to fresh wells […].
# [8] = target: T3, HER2-Fc (species not stated); experiment: as above
# Procedure: as §2
# [9] = target: T1, HVEM-Ig (species not stated); experiment: as above
# Procedure: as §2
# [10] = target: T1, HVEM-Ig (species not stated); experiment: FACS (Table 2; format not given, Example 16 detects HVEM-Fc on cell-bound fusion)
binder,measurement,setting,value
B1,EC50,[1],0.01 nM
same,"CCL2 (MCP-1) transcript, fold difference test/control, HT29 cells, quantitative RT-PCR",[2],1050 fold
same,"CCL5 (RANTES) transcript, fold difference test/control, HT29 cells, quantitative RT-PCR",[2],1220 fold
same,"CCL7 (MCP-3) transcript, fold difference test/control, HT29 cells, quantitative RT-PCR",[2],-527 fold
same,"CCL21 transcript, fold difference test/control, HT29 cells, quantitative RT-PCR",[2],546 fold
same,"CCR4 transcript, fold difference test/control, HT29 cells, quantitative RT-PCR",[2],1650 fold
same,"CXCL2 transcript, fold difference test/control, HT29 cells, quantitative RT-PCR",[2],1130 fold
same,"CXCL3 transcript, fold difference test/control, HT29 cells, quantitative RT-PCR",[2],1090 fold
same,"CXCL5 (ENA-78/LIX) transcript, fold difference test/control, HT29 cells, quantitative RT-PCR",[2],1810 fold
same,"CXCL9 transcript, fold difference test/control, HT29 cells, quantitative RT-PCR",[2],675 fold
same,"CXCL10 (IP-10) transcript, fold difference test/control, HT29 cells, quantitative RT-PCR",[2],5270 fold
same,"CXCL11 (I-TAC/IP9) transcript, fold difference test/control, HT29 cells, quantitative RT-PCR",[2],1730 fold
same,"IFNA2 transcript, fold difference test/control, HT29 cells, quantitative RT-PCR",[2],193 fold
same,"IL5 transcript, fold difference test/control, HT29 cells, quantitative RT-PCR",[2],940 fold
same,"IL8 transcript, fold difference test/control, HT29 cells, quantitative RT-PCR",[2],373 fold
same,"IL10RA transcript, fold difference test/control, HT29 cells, quantitative RT-PCR",[2],3440 fold
same,"LTB transcript, fold difference test/control, HT29 cells, quantitative RT-PCR",[2],2910 fold
same,"TNF transcript, fold difference test/control, HT29 cells, quantitative RT-PCR",[2],7370 fold
same,EC50,murine HER2-Fc,0.0114 µg/mL
same,EC50,[3],0.05 nM
same,EC50,[4],0.2 nM
same,EC50,[5],0.01 nM
same,EC50,human HER2-Fc,0.00955 µg/mL
same,EC50,[6],0.5 nM
same,koff,[7],0.000168 s⁻¹
same,koff,[8],0.000112 s⁻¹
same,koff,[9],0.000122 s⁻¹
same,EC50,[10],0.5 nM
